Molecular target: Rhodobacter capsulatus formate dehydrogenase subunit FdsA (Rhodobacter capsulatus)
Experiment: cryo-EM structure; single particle analysis of the co-expressed, co-purified RcFDH complex (100 µg/ml), as isolated with 10 mM azide and after 5 min with 2 mM NADH; C2 symmetry imposed; 3.3 Å and 3.2 Å

- stoichiometry N: 2
Substance: Rhodobacter capsulatus formate dehydrogenase subunit FdsA (natural protein)
